Reference: patent publication US7301069B2, “Methods of protecting plants from pathogenic fungi and nematodes” (Pioneer Hi-Bred International, Inc., priority 2004, dated 2007)

B1: Kis10: Kistrin polypeptide of SEQ ID NO: 10 from Petunia x hybrida, predicted mature region, recombinantly expressed in E. coli as cleaved MBP fusion (protein)
chain: GSLKPSQCLPQCTRRCSQTQYHNACMLFCQKCCNKCLCVPPGFYGNKGVCPCYNNWKTKEGGPKCP
modifications: Petunia x hybrida; PEPTIDE (0)...(0) Kis10 mature peptide
B2: Kis5: Kistrin polypeptide of SEQ ID NO: 4 from Picea mariana (black spruce), predicted mature region, recombinantly expressed in E. coli as cleaved MBP fusion (protein, listed as Picea mariana)
chain: GSLRPSECGQRCSYRCSATSHKKPCMFFCQKCCAKCLCVPPGTFGNKQVCPCYNNWKTQQGGPKCP
modifications: PEPTIDE (0)...(0) Kis5 mature peptide
B3: Kis2: Kistrin polypeptide of SEQ ID NO: 1 from Arabidopsis thaliana, predicted mature region, recombinantly expressed in E. coli as cleaved MBP fusion (protein, listed as Arabidopsis thaliana)
chain: GKLKPQQCNSKCSFRCSATSHKKPCMFFCLKCCKKCLCVPPGTFGNKQTCPCYNNWKTKEGRPKCP
modifications: PEPTIDE (0)...(0) Kis2 mature peptide
B4: Kis6: Kistrin polypeptide of SEQ ID NO: 7 from Arabidopsis thaliana, predicted mature region, recombinantly expressed in E. coli as cleaved MBP fusion (protein, listed as Arabidopsis thaliana)
chain: GYAKKIDCGSACVARCRLSRRPRLCHRACGTCCYRCNCVPPGTYGNYDKCQCYASLTTHGGRRKCP
modifications: PEPTIDE (0)...(0) Kis6 mature peptide

Experiments:
[1] = tested on: Fusarium verticillioides; assay: Anti-fungal bioassay (primary screening); assay type: cell-based; design: key: 0 = no effect; 1 = partial growth inhibition; 2 = strong inhibition; details: protease-cleaved fusion protein samples, scored after 18 to 48 hours
Procedure: (§1) The same polypeptides of Example 1 which were recombinantly expressed in E. Coli were also screened in an anti-fungal bioassay against five selected fungal pathogens.
(§2) All fungal strains were grown and maintained on potato dextrose agar (PDA) plates, in a 30° C. incubator. These plates were kept in smaller secondary containers (per fungal strain), with moist paper towels to maintain high humidity. Spores were harvested in a quarter strength of potato dextrose broth (PDB) after about 2 weeks of growth, counted using a hemacytometer, and subsequently stored in small aliquots at −80° C.
(§3) The frozen spores were diluted to the working concentration (determined empirically for each fungal strain), in a quarter strength of PDB, and 50 μL (per well) were added to sterile, flat-bottomed 96-well assay plates. The assay plates were incubated in the humid boxes at room temperature for 5-7 hours to allow the spores to germinate. Serial dilutions of purified, protease-cleaved fusion protein samples were then added to the assay plates, in 50 μL volumes, for a final assay volume of 100 μL per well. The assay plates were allowed to incubate overnight, in a humid box, at 30° C. Antifungal activity was scored after 18 to 48 hours, depending upon the strain of fungus.

[2] = tested on: Fusarium oxysporum; assay: Anti-fungal bioassay (primary screening); assay type: cell-based; design: key: 0 = no effect; 1 = partial growth inhibition; 2 = strong inhibition; details: protease-cleaved fusion protein samples, scored after 18 to 48 hours
Procedure: as §1, §2, §3

[3] = tested on: Botrytis cinerea; assay: Anti-fungal bioassay (primary screening); assay type: cell-based; design: key: 0 = no effect; 1 = partial growth inhibition; 2 = strong inhibition; details: protease-cleaved fusion protein samples, scored after 18 to 48 hours
Procedure: as §1, §2, §3

[4] = tested on: Alternaria brassicicola; assay: Anti-fungal bioassay (primary screening); assay type: cell-based; design: key: 0 = no effect; 1 = partial growth inhibition; 2 = strong inhibition; details: protease-cleaved fusion protein samples, scored after 18 to 48 hours
Procedure: as §1, §2, §3

[5] = tested on: Verticillium dahliae; assay: Anti-fungal bioassay (primary screening); assay type: cell-based; design: key: 0 = no effect; 1 = partial growth inhibition; 2 = strong inhibition; details: protease-cleaved fusion protein samples, scored after 18 to 48 hours
Procedure: as §1, §2, §3

[6] = tested on: C. elegans; assay: C. elegans feeding bioassay; assay type: in vivo, Caenorhabditis elegans; details: cleaved peptides; concentrations based on Bradford (BSA standard), assume 100% cleavage of the MBP-Kistrin fusion
Procedure: A number of polypeptides were recombinantly expressed in E. coli and then screened in a nematode bioassay.
C. elegans feeding bioassays. Screening was performed in high throughput using E. coli expressed material, corresponding to the predicted mature regions of various small peptides. Expression of biologically functional polypeptides involved producing a fusion protein that included a maltose-binding protein (MBP) and a polypeptide of interest and subsequently cleaving the fusion protein at a protease recognition sequence to release the peptide of interest. DNA encoding the polypeptide of interest was fused to the C-terminus of the MelE gene in the E. coli expression vector pMAL (New England Biolabs; see, Guan et al., Gene 67:21-30 (1987); and Maina et al., Gene 74:365-73 (1988)). Sequences encoding the cleavage site of proteases Factor Xa or Genenase I were incorporated between the genes of MBP and the polypeptide of interest. A histidine tag was also added to the N-terminus of MBP.
The constructed plasmid vector was transformed into cells of E. coli XL-1 Blue and transformants were grown in 2YT medium containing 50 μg/mL carbenicillin to a cell density of OD600=0.6-0.9. Expression of the fusion protein was induced by addition of IPTG into the culture to a final concentration of 1 mM. Cells were grown for 4-16 hours to saturation before harvesting. Cells were harvested by centrifugation and then lysed with B-PER reagent (Pierce Chemicals, Rockford, Ill.) to obtain the fraction of soluble proteins. The fusion protein was purified from the cell lysate supernatant utilizing the histidine tag by incubating the cell lysate with Ni-NTA agarose resins for 20 minutes to 1 hour. The resins were washed with Tris buffer to remove all unbound proteins. Two-mercaptoethanol (10 mM) was included in the lysis and washing buffers to allow partial refolding of the proteins. Elution of the bound fusion protein was performed with buffer containing 20-40 mM […]. To release the polypeptide of interest, the purified fusion protein was incubated with Factor Xa or Genease I (RT, 8-24 hours). The cleaved protein sample was then used in nematode activity assays.
Hit characterization. Approximate IC50's (in μg/mL) for 4 hits determined from C. elegans bioassay using cleaved peptides. Concentrations were determined based on Bradford (BSA standard) and assume 100% cleavage of the MBP-Kistrin fusion.

| Molecule | Antifungal score, Fusarium verticillioides [1] | Antifungal score, Fusarium oxysporum [2] | Antifungal score, Botrytis cinerea [3] | Antifungal score, Alternaria brassicicola [4] | Antifungal score, Verticillium dahliae [5] | Approximate IC50 from C. elegans bioassay [6] |
| --- | --- | --- | --- | --- | --- | --- |
| B1 | 0 | 0 | 0 | 0 | 0 | 30 µg/mL |
| B2 | 0 | 1 | 0 | 0 | 2 | 75 µg/mL |
| B3 | 0 | 0 | 0 | 0 | 0 | 15 µg/mL |
| B4 | 0 | 0 | 0 | 0 | 1 | 150 µg/mL |
